Measurements reported in patent US20130102527A1 (TRUSTEES OF DARTMOUTH COLLEGE, published 2013).
Read-outs that look alike come from different tables or passages of the source. Non-standard residues stand in square brackets, D forms with d. Primed or numbered codes have the meaning given here. No end group written: not given here. *: point of attachment. N3‑Phe = N-terminal azido-phenylalanine, [N-]=[N+]=N[C@@H](Cc1ccccc1)C(=O)*; HMB = 3-hydroxy-2-methylbenzoyl cap, Cc1c(O)cccc1C(=O)*; Phe(4-N3) = [N-]=[N+]=Nc1ccc(C[C@H](N)C(=O)O)cc1; Phe(4-CH2NH2) = NCc1ccc(C[C@H](N)C(=O)O)cc1; Phe(4-NH2) = Nc1ccc(C[C@H](N)C(=O)O)cc1; N3Phe = N-terminal azido-phenylalanine; 4Pal = N[C@@H](Cc1ccncc1)C(=O)O; VS″ = vinyl sulfone (warhead); VS = vinyl sulfone warhead; EK = epoxyketone warhead; ek = epoxyketone warhead

How the values were obtained:
[1] = target: T1, trypsin-like site (β2 subunit) of yeast 20S proteasome (S. cerevisiae, UniProt P25043 30-261); test: cell-based or functional assay
T1 sequence (looked up): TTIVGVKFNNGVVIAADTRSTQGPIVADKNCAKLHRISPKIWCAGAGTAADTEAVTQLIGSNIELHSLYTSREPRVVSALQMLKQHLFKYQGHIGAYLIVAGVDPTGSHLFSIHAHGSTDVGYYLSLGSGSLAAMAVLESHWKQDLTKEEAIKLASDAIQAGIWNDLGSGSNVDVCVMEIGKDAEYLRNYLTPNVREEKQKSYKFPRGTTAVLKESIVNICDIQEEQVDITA

[2] = target: T1, trypsin-like site (β2 subunit) of yeast …; test: cell-based or functional assay; remark: listed apart in the source
[3] = target: T2, chymotrypsin-like site (β5 subunit) of yeast 20S proteasome (S. cerevisiae, UniProt P30656 76-287); test: cell-based or functional assay
T2 sequence (looked up): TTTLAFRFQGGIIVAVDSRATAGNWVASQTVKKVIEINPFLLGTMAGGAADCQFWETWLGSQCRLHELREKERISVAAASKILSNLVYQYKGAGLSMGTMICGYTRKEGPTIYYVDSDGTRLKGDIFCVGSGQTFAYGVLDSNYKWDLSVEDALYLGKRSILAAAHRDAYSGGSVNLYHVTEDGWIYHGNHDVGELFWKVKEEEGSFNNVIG

[4] = target: T3, trypsin-like site (β2 subunit) of 26S proteasomes purified from rabbit muscle (rabbit, UniProt G1SWK8 44-271); test: cell-based or functional assay
T3 sequence: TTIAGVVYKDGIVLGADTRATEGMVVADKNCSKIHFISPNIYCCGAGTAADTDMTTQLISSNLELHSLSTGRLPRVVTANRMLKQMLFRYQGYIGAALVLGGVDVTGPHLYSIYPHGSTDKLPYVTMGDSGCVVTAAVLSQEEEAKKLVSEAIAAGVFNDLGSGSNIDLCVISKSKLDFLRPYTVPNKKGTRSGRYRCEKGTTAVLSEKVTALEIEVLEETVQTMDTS

[5] = target: T4, caspase-like site (β1 subunit) of 26S proteasomes purified from rabbit muscle (rabbit); test: cell-based or functional assay
[6] = target: T5, proteasome β1 subunit (caspase-like site) in human cells and cell extracts (human, UniProt P28072 35-239); test: cell-based or functional assay
[7] = target: T3, trypsin-like site (β2 subunit) of 26S …; test: cell-based or functional assay; remark: listed apart in the source
[8] = target: T4, caspase-like site (β1 subunit) of 26S …; test: cell-based or functional assay; remark: listed apart in the source
[9] = target: T3, trypsin-like site (β2 subunit) of 26S …; test: cell-based or functional assay; remark: listed apart in the source
[10] = target: T6, chymotrypsin-like site (β5 subunit) of 26S proteasomes purified from rabbit muscle (rabbit, UniProt G1T4Q9 60-263); test: cell-based or functional assay
T6 sequence: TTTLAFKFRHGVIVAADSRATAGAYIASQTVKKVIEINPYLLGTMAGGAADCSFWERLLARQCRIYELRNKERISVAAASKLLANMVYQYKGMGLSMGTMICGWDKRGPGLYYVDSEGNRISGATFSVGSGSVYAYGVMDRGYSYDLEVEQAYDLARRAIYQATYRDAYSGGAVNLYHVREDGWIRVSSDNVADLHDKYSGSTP

[11] = target: T7, proteasome β5 subunit (chymotrypsin-like site) in human cells and cell extracts (human, UniProt P28074 60-263); test: competition with activity-based probe in living HEK-293 cells, 4 h; Chym-L site
T7 construct: mature; also called Chym-L; chymotrypsin-like sites

[12] = target: T6, chymotrypsin-like site (β5 subunit) of …; test: cell-based or functional assay; remark: listed apart in the source
[13] = target: T7, proteasome β5 subunit …; test: cell-based or functional assay
[14] = target: T5, proteasome β1 subunit (caspase-like …); test: labelling and competition assay in HEK-293T lysate, fluorescence gel

T5 sequence (P28072 35-239): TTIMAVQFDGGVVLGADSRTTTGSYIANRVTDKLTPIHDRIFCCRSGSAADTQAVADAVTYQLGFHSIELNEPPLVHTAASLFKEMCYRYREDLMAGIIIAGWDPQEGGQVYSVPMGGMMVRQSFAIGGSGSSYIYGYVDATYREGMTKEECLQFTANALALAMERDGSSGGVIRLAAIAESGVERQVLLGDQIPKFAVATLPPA

[N3‑Phe][Phe(4-CH2NH2)]L[Phe(4-CH2NH2)]-{VS} [N3-Phe-Phe(4-CH2NH2)-Leu-Phe(4-CH2NH2)-VS (52)]
fold potency against yeast trypsin-like sites relative to 4a [1]: > 4000 fold
IC50 (µM) for yeast 20S proteasome: Tr-L [2]: 0.00055 µM
IC50 (µM) for yeast 20S proteasome: Chym-L [3]: 6.1 µM

{HMB}-Val-Ser-[Phe(4-CH2NH2)]-{VS} [HMB-Val-Ser-Phe(4-CH2NH2)-VS (48)]
IC50 (µM) for sites in 26S proteasomes: Tr-L [4]: 0.25 µM
IC50 (µM) for sites in 26S proteasomes: Casp-L [5]: 11 µM
IC50 (µM) for sites: Casp-L; NCI-H929 cells, 6 h, PROTEASOMEGLO [6]: > 30 µM
IC50 (µM) for sites: Casp-L; RPMI-8226 cells, 6 h, PROTEASOMEGLO [6]: > 30 µM

[Phe(4-N3)]LL[Phe(4-CH2NH2)]-{EK} (also: TFA salt) [N3Phe-Leu-Leu-Phe(4-CH2NH2)EK TFA salt (4b)]
IC50 (µM) for sites in 26S proteasomes: Tr-L [7]: 0.25 µM
IC50 (µM) for sites in 26S proteasomes: Casp-L [8]: 11 µM

[N3Phe][4Pal]L[Phe(4-CH2NH2)]-{VS} (also: TFA salt) [N3-Phe-Ala(4-pyridine)-Leu-Phe(4-CH2NH2-TFA)-VS (50)]
IC50 (µM) for sites: Tr-L [9]: 0.012 µM
IC50 (µM) for sites: Chym-L [10]: 1.05 µM
IC50 (µM) for sites: Casp-L; NCI-H929 cells, 6 h, PROTEASOMEGLO [6]: > 30 µM
IC50 [11]: > 50 µM

[Phe(4-N3)]LL[Phe(4-NH2)]-{EK} [N3-Phe-Leu-Leu-Phe(4-NH2)-EK (45b)]
IC50 (µM) for sites in 26S proteasomes: Tr-L [7]: 1.8 µM
IC50 (µM) for sites in 26S proteasomes: Chym-L [12]: 0.01 µM
IC50 (µM) for sites in 26S proteasomes: Casp-L [8]: > 30 µM

Ac-Leu-Leu-Arg-ek [NC-002 (Ac-Leu-Leu-Arg-ek)]
IC50 (µM) for sites in 26S proteasomes: Tr-L [7]: 1 µM
IC50 (µM) for sites in 26S proteasomes: Chym-L [12]: > 30 µM
IC50 (µM) for sites in 26S proteasomes: Casp-L [8]: > 30 µM

{HMB}-Val-Ser-Arg-ek [NC-022 (HMB-Val-Ser-Arg-ek)]
IC50 (µM) for sites in 26S proteasomes: Tr-L [4]: 0.0038 µM
IC50 (µM) for sites in 26S proteasomes: Casp-L [5]: 16 µM
IC50 (µM) for sites: Chym-L; NCI-H929 cells, 6 h, PROTEASOMEGLO [13]: > 30 µM
IC50 (µM) for sites: Chym-L; RPMI-8226 cells, 6 h, PROTEASOMEGLO [13]: > 30 µM
IC50 (µM) for sites: Casp-L; NCI-H929 cells, 6 h, PROTEASOMEGLO [6]: > 30 µM
IC50 (µM) for sites: Casp-L; RPMI-8226 cells, 6 h, PROTEASOMEGLO [6]: > 30 µM

B1: BODIPY-triazole-Phe-Leu-Leu-Phe(4-CH2NH2)-VS TFA salt (39) (peptide)
peptide: {BODIPY‑triazole}-FLL[Phe(4-CH2NH2)]-{VS″}
modifications: also: TFA salt
notes: Fluorescent probe made from compound 4a; also called compound 39
binding result [14]: no binding

[N3Phe]LL[Phe(4-NH2)]-{VS} [N3-Phe-Leu-Leu-Phe(4-NH2)-VS (45a)]
IC50 (µM) for sites in 26S proteasomes: Chym-L [12]: 0.04 µM
IC50 (µM) for sites in 26S proteasomes: Casp-L [8]: 23 µM
